Broadly, the IC50 is the concentration at which inhibition is half-maximal. A lower IC50 goes with higher potency.

Ends that are not written are not given here.

The text below walks through data of publication PMC2710984.

The assay addresses GST–BIR3 fusion protein (XIAP BIR3 domain). Nature of the assay: FMAT bead-based fluorescence competition assay.
ALPF-NH2 [ALPF (compound 15)]: the concentration for half-maximal inhibition (IC50) was 180 nM.
In the case of ATPF-NH2 [ATPF (compound 17)] it was 200 nM; in that of SVPF-NH2 [SVPF (compound 10)], 1000 nM; in that of AVPIAQK-NH2 [Smac 7-mer peptide AVPIAQK (compound 1)], 390 nM.
The result for AVPIA-NH2 [Smac 5-mer peptide AVPIA (compound 3)] reads 300 nM; that for AIAY-NH2 [Grim 4-mer peptide AIAY (compound 8)], 340 nM.
In the case of AVPIAQ-NH2 [Smac 6-mer peptide AVPIAQ (compound 2)] it was 270 nM.
AIPF-NH2 [AIPF (compound 16)] had a half-maximal inhibitory concentration (IC50) of 80 nM.
